This note sets out measurements from patent US20260242478A1 (published 2026).

Where no end group is shown, it is not given here.

Assay [1] deals with Anti-CD28 Fab (SEQ ID NOs: 696, 697). In words: phage binding ELISA; biotinylated anti-CD28 Fab on neutravidin plate, clonal phage supernatant, anti-M13 HRP detection. On the technique in general: ELISA stands for enzyme-linked immunosorbent assay.
Target sequence in this assay (VH, as listed by the source, chain 1 of 2): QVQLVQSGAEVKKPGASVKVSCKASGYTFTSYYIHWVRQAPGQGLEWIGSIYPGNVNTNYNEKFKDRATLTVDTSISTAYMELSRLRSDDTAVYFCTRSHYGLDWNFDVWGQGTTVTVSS
Target sequence in this assay (VL, as listed by the source, chain 2 of 2): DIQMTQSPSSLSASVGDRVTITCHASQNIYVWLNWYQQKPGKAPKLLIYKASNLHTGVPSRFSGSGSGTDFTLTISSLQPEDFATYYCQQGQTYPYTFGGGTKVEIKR
Experimental: (§1) After panning, phage infected bacteria were plated out and colonies picked into 96 well blocks. Clonal phage was then amplified and separated from bacterial cells via centrifugation.
(§2) Clonal phage were harvested as crude supematants and screened via standard ELISAs. […] Prior to the addition of clonal phage, wells were incubated with blocking buffer and CD28 antigen or blocking buffer alone. Without washing or aspirating, clonal phage supematants were then added to the wells and incubated for a short time. Wells were then washed followed by detection of bound phage using a horse radish conjugated anti-M13 antibody. Clonal phage of interest were then sent for sequence analysis.
The target is the same in assay [2]. In words: phage binding ELISA; captured anti-CD28 Fab pre-incubated with CD28 antigen as competitor, anti-M13 HRP detection.
Target sequence in this assay (VH, as listed by the source, chain 1 of 2): as the sequence (VH, as listed by the source, chain 1 of 2) above
Target sequence in this assay (VL, as listed by the source, chain 2 of 2): as the sequence (VL, as listed by the source, chain 2 of 2) above
The target of assay [3] is T1, Anti-CD28 Fab (SEQ ID NOs: 696, 697).
T1 construct: In the phage ELISA the Fab was biotinylated and captured on neutravidin coated plates
In words: phage binding ELISA; biotinylated anti-CD28 Fab on neutravidin plate, bound phage detected with anti-M13-HRP.
T1 sequence (VH, as listed by the source, chain 1 of 2): as the sequence (VH, as listed by the source, chain 1 of 2) above
T1 sequence (VL, as listed by the source, chain 2 of 2): as the sequence (VL, as listed by the source, chain 2 of 2) above
Experimental: as §1, §2

For assay [4] the target is unchanged. Put plainly: phage binding ELISA on captured anti-CD28 Fab; competitor: CD28 antigen pre-incubated in the wells.
Target sequence in this assay (VH, as listed by the source, chain 1 of 2): as the sequence (VH, as listed by the source, chain 1 of 2) above
Target sequence in this assay (VL, as listed by the source, chain 2 of 2): as the sequence (VL, as listed by the source, chain 2 of 2) above
Experimental: as §1, §2

B1: Phage-696 (peptide)
peptide: YCEGHAPQYIAKCL
modifications: cysteine pairing not given here; also: displayed on phage by fusion to pIII, pIII and linker sequence not given here
As for B1, the “Anti-CD28 Fab (SEQ ID NOs: 696, 697) signal” value in assay [1] came out at 2.03. Moreover, the “Anti-CD28 Fab signal in the presence of CD28” value in assay [2] worked out at 0.08.

B2: Phage-694 (peptide)
peptide: YCDGHSSEYMWKCL
As to B2, the “Anti-CD28 Fab signal (phage binding ELISA)” value in assay [3] worked out at 2.03. The “Anti-CD28 Fab signal in the presence of CD28 (phage binding ELISA)” value in assay [4] turned out to be 0.06.

B3: Phage-690 (peptide)
peptide: YCEGHAPQHMDKCL
For B3, in assay [3], the “Anti-CD28 Fab signal (phage binding ELISA)” value was 2.04. In assay [4], the “Anti-CD28 Fab signal in the presence of CD28 (phage binding ELISA)” value was determined as 0.08.

B4: Phage-701 (peptide)
peptide: YCEGHSPEYMTKCL
modifications: cysteine pairing not given here; also: displayed on phage by fusion to pIII, pIII and linker sequence not given here
Regarding B4, the “Anti-CD28 Fab (SEQ ID NOs: 696, 697) signal” value in assay [1] is 2.02. Moreover, the “Anti-CD28 Fab signal in the presence of CD28” value in assay [2] came out at 0.08.

B5: Phage-692 (peptide)
peptide: YCDGHFREYMQKCL
For B5, the “Anti-CD28 Fab signal (phage binding ELISA)” value in assay [3] came out at 2.04. Besides, the “Anti-CD28 Fab signal in the presence of CD28 (phage binding ELISA)” value in assay [4] was 0.06.

B6: Phage-693 (peptide)
peptide: YCLGHAPQYIQKCL
Take B6: the “Anti-CD28 Fab signal (phage binding ELISA)” value in assay [3] amounted to 2.04. In addition, in assay [4], the “Anti-CD28 Fab signal in the presence of CD28 (phage binding ELISA)” value is 0.14.

B7: Phage-699 (peptide)
peptide: YCEGHRPEYMQKCL
modifications: cysteine pairing not given here; also: displayed on phage by fusion to pIII, pIII and linker sequence not given here
In the case of B7, in assay [1], the “Anti-CD28 Fab (SEQ ID NOs: 696, 697) signal” value was 2.03. Moreover, in assay [2], the “Anti-CD28 Fab signal in the presence of CD28” value came out at 0.11.

B8: Phage-691 (peptide)
peptide: YCEGHSPQYMSKCL
With B8, the “Anti-CD28 Fab signal (phage binding ELISA)” value in assay [3] came out at 2.04. For the same molecule, the “Anti-CD28 Fab signal in the presence of CD28 (phage binding ELISA)” value in assay [4] is 0.07.

B9: Phage-698 (peptide)
peptide: YCAGHLPEYMMKCL
modifications: cysteine pairing not given here; also: displayed on phage by fusion to pIII, pIII and linker sequence not given here
For B9, in assay [1], the “Anti-CD28 Fab (SEQ ID NOs: 696, 697) signal” value came to 2.03. The “Anti-CD28 Fab signal in the presence of CD28” value in assay [2] was 0.11.

B10: Phage-702 (peptide)
peptide: YCEGHSIQYMAKCL
modifications: cysteine pairing not given here; also: displayed on phage by fusion to pIII, pIII and linker sequence not given here
On to B10, for which the “Anti-CD28 Fab (SEQ ID NOs: 696, 697) signal” value in assay [1] is 2.02. The “Anti-CD28 Fab signal in the presence of CD28” value in assay [2] was determined as 0.06.

B11: Phage-695 (peptide)
peptide: YCSGHLPEYMSKCL
As for B11, the “Anti-CD28 Fab signal (phage binding ELISA)” value in assay [3] was determined as 2.03. The “Anti-CD28 Fab signal in the presence of CD28 (phage binding ELISA)” value in assay [4] came to 0.09.

B12: Phage-697 (peptide)
peptide: YCDGHSPMYIGKCL
modifications: cysteine pairing not given here; also: displayed on phage by fusion to pIII, pIII and linker sequence not given here
On to B12, for which the “Anti-CD28 Fab (SEQ ID NOs: 696, 697) signal” value in assay [1] was 2.03. In addition, in assay [2], the “Anti-CD28 Fab signal in the presence of CD28” value was 0.07.

B13: Phage-700 (peptide)
peptide: YCEGHAREHMAKCL
modifications: cysteine pairing not given here; also: displayed on phage by fusion to pIII, pIII and linker sequence not given here
Turning to B13, in assay [1], the “Anti-CD28 Fab (SEQ ID NOs: 696, 697) signal” value was 2.02. For the same molecule, the “Anti-CD28 Fab signal in the presence of CD28” value in assay [2] was 0.08.
